Source: patent publication US9957535B2, “Methods, reagents and cells for biosynthesizing compounds” (INVISTA North America S.á r.l., priority 2014, dated 2018)

What was measured:
Format in all cases: biochemical
[1] = ω-transaminase enzyme activity assay, reverse direction (5-aminopentanoate to glutarate semialdehyde), L-alanine formation from pyruvate by RP-HPLC; conditions: cell free extract, 10 mM 5-aminopentanoate, 10 mM pyruvate, pH 7.5, 25° C., 4 h, against empty vector control (FIG. 18)
Method: (§1) A nucleotide sequence encoding an N-terminal His-tag was added to the genes from Chromobacterium violaceum and Rhodobacter sphaeroides encoding the ω-transaminases of SEQ ID NOs: 8 and 10 respectively (see FIG. 10) such that N-terminal HIS tagged ω-transaminases could be produced. Each of the resulting modified genes was cloned into a pET21a expression vector under control of the T7 promoter and each expression vector was transformed into a BL21[DE3] E. coli host. The resulting recombinant E. coli strains were cultivated at 37° C. in a 250 mL shake flask culture containing 50 mL LB media and antibiotic selection pressure, with shaking at 230 rpm. Each culture was induced overnight at 16° C. using 1 mM IPTG.
(§2) The pellet from each induced shake flask culture was harvested via centrifugation. Each pellet was resuspended and lysed via sonication. The cell debris was separated from the supernatant via centrifugation and the cell free extract was used immediately in enzyme activity assays.
Enzyme activity assays in the reverse direction (i.e., 5-aminopentanoate to glutarate semialdehyde) were performed in a buffer composed of a final concentration of 50 mM HEPES buffer (pH=7.5), 10 mM 5-aminopentanoate, 10 mM pyruvate and 100 μM pyridoxyl 5′ phosphate. […] The formation of L-alanine from pyruvate was quantified via RP-HPLC.

[2] = ω-transaminase enzyme activity assay (N5-acetyl-1,5-diaminopentane to N5-acetyl-5-aminopentanal), L-alanine formation by RP-HPLC; conditions: for ω-transaminase activity converting N5-acetyl-1,5-diaminopentane to N5-acetyl-5-aminopentanal (substrate acceptance): cell free extract, 10 mM N5-acetyl-1,5-diaminopentane, 10 mM pyruvate, pH 7.5, 25° C., 4 h, against empty vector control (FIG. 15); for ω-transaminase acceptance of N5-acetyl-5-aminopentanal forming N5-acetyl-1,5-diaminopentane, concluded from reversibility: concluded from reversibility of the ω-transaminase activity (Example 1)
Method: The activity of the N-terminal His-tagged ω-transaminases of SEQ ID NOs: 8, 10-13 (see Example 3, and FIG. 10) for converting N5-acetyl-1,5-diaminopentane to N5-acetyl-5-aminopentanal was assayed using a buffer composed of a final concentration of 50 mM HEPES buffer (pH=7.5), 10 mM N5-acetyl-1,5-diaminopentane, 10 mM pyruvate and 100 μM pyridoxyl 5′ phosphate. Each enzyme activity assay reaction was initiated by adding a cell free extract of the ω-transaminase or the empty vector control to the assay buffer containing the N5-acetyl-1,5-diaminopentane then incubated at 25° C. for 4 h, with shaking at 250 rpm. The formation of L-alanine was quantified via RP-HPLC.

[3] = ω-transaminase enzyme activity assay, forward direction (glutarate semialdehyde to 5-aminopentanoate), pyruvate formation by RP-HPLC; conditions: for ω-transaminase acceptance of glutarate semialdehyde, synthesizing 5-aminopentanoate, concluded from reversibility: concluded from confirmed reversibility of the ω-transaminase activity
Method: as §1, §2
Enzyme activity in the forward direction (i.e., glutarate semialdehyde to 5-aminopentanoate) was confirmed for the transaminase of SEQ ID NO 10. Enzyme activity assays were performed in a buffer composed of a final concentration of 50 mM HEPES buffer (pH=7.5), 10 mM glutarate semialdehyde, 10 mM L-alanine and 100 μM pyridoxyl 5′ phosphate. Each enzyme activity assay reaction was initiated by adding a cell free extract of the ω-transaminase gene product or the empty vector control to the assay buffer containing the glutarate semialdehyde and incubated at 25° C. for 4 h, with shaking at 250 rpm. The formation of pyruvate was quantified via RP-HPLC.

[4] = carboxylate reductase enzyme activity assay (glutarate semialdehyde to pentanedial), NADPH consumption at 340 nm; conditions: purified enzyme enhanced by gene product of sfp, 2 mM glutarate semialdehyde, 1 mM ATP, 1 mM NADPH, pH 7.5, room temperature, 20 min, against empty vector control (FIG. 16)
Method: The N-terminal His-tagged carboxylate reductase of SEQ ID NO 7 (see Example 3 and FIG. 10) was assayed using glutarate semialdehyde as substrate. The enzyme activity assay was performed in triplicate in a buffer composed of a final concentration of 50 mM HEPES buffer (pH=7.5), 2 mM glutarate semialdehyde, 10 mM MgCl2, 1 mM ATP and 1 mM NADPH. The enzyme activity assay reaction was initiated by adding purified carboxylate reductase and phosphopantetheine transferase or the empty vector control to the assay buffer containing the glutarate semialdehyde and then incubated at room temperature for 20 min. The consumption of NADPH was monitored by absorbance at 340 nm.

Row | Molecule | ω-transaminase activity converting 5-aminopentanoate to glutarate semialdehyde (substrate acceptance) [1] | ω-transaminase activity converting N5-acetyl-1,5-diaminopentane to N5-acetyl-5-aminopentanal (substrate acceptance) [2] | ω-transaminase acceptance of N5-acetyl-5-aminopentanal forming N5-acetyl-1,5-diaminopentane, concluded from reversibility [2] | ω-transaminase acceptance of glutarate semialdehyde, synthesizing 5-aminopentanoate, concluded from reversibility [3] | ω-transaminase activity converting glutarate semialdehyde to 5-aminopentanoate (substrate acceptance) ([3]; cell free extract, 10 mM glutarate semialdehyde, 10 mM L-alanine, pH 7.5, 25° C., 4 h, against empty vector control (FIG. 19)) | carboxylate reductase activity converting glutarate semialdehyde to pentanedial (substrate acceptance) [4]
1 | SEQ ID NO 8: Chromobacterium violaceum ω-transaminase (Genbank Accession No. AAQ59697.1), N-terminal HIS tagged (protein, listed as Chromobacterium violaceum, N-terminal His tag) MQKQRTTSQWRELDAAHHLHPFTDTASLNQAGARVMTRGEGVYLWDSEGNKIIDGMAGLWCVNVGYGRKDFAEAARRQMEELPFYNTFFKTTHPAVVELSSLLAEVTPAGFDRVFYTNSGSESVDTMIRMVRRYWDVQGKPEKKTLIGRWNGYHGSTIGGASLGGMKYMHEQGDLPIPGMAHIEQPWWYKHGKDMTPDEFGVVAARWLEEKILEIGADKVAAFVGEPIQGAGGVIVPPATYWPEIERICRKYDVLLVADEVICGFGRTGEWFGHQHFGFQPDLFTAAKGLSSGYLPIGAVFVGKRVAEGLIAGGDFNHGFTYSGHPVCAAVAHANVAALRDEGIVQRVKDDIGPYMQKRWRETFSRFEHVDDVRGVGMVQAFTLVKNKAKRELFPDFGEIGTLCRDIFFRNNLIMRACGDHIVSAPPLVMTRAEVDEMLAVAERCLEEFEQTLKARGLA | accepted 5-aminopentanote as substrate | accepted N5-acetyl-1,5-diaminopentane as substrate | accept N5-acetyl-5-aminopentanal as substrate forming N5-acetyl-1,5-diaminopentane | accepted glutarate semialdehyde as substrate and synthesized 5-aminopentanoate | – | –
2 | SEQ ID NO 10: Pseudomonas syringae ω-transaminase (Genbank Accession No. AAY39893.1), N-terminal HIS tagged; b286 says Rhodobacter sphaeroides (protein, listed as Pseudomonas syringae, N-terminal His tag, b286 says Rhodobacter sphaeroides) MSANNPQTLEWQALSSEHHLAPFSDYKQLKEKGPRIITRAEGVYLWDSEGNKILDGMSGLWCVAIGYGREELADAASKQMRELPYYNLFFQTAHPPVLELAKAISDIAPEGMNHVFFTGSGSEGNDTMLRMVRHYWALKGQPNKKTIISRVNGYHGSTVAGASLGGMTYMHEQGDLPIPGVVHIPQPYWFGEGGDMTPDEFGIWAAEQLEKKILELGVENVGAFIAEPIQGAGGVIVPPDSYWPKIKEILSRYDILFAADEVICGFGRTSEWFGSDFYGLRPDMMTIAKGLTSGYVPMGGLIVRDEIVAVLNEGGDFNHGFTYSGHPVAAAVALENIRILREEKIVERVRSETAPYLQKRLRELSDHPLVGEVRGVGLLGAIELVKDKTTRERYTDKGAGMICRTFCFDNGLIMRAVGDTMIIAPPLVISFAQIDELVEKARTCLDLTLAVLQG | – | accepted N5-acetyl-1,5-diaminopentane as substrate | accept N5-acetyl-5-aminopentanal as substrate forming N5-acetyl-1,5-diaminopentane | accepted glutarate semialdehyde as substrate and synthesized 5-aminopentanoate | accepted glutarate semialdehyde as substrate | –
3 | SEQ ID NO 7: Segniliparus rotundus carboxylate reductase (Genbank Accession No. ADG98140.1), N-terminal HIS tagged (protein, listed as Segniliparus rotundus, N-terminal His tag) MTQSHTQGPQASAAHSRLARRAAELLATDPQAAATLPDPEVVRQATRPGLRLAERVDAILSGYADRPALGQRSFQTVKDPITGRSSVELLPTFDTITYRELRERATAIASDLAHHPQAPAKPGDFLASIGFISVDYVAIDIAGVFAGLTAVPLQTGATLATLTAITAETAPTLFAASIEHLPTAVDAVLATPSVRRLLVFDYRAGSDEDREAVEAAKRKIADAGSSVLVDVLDEVIARGKSAPKAPLPPATDAGDDSLSLLIYTSGSTGTPKGAMYPERNVAHFWGGVWAAAFDEDAAPPVPAINITFLPLSHVASRLSLMPTLARGGLMHFVAKSDLSTLFEDLKLARPTNLFLVPRVVEMLYQHYQSELDRRGVQDGTREAEAVKDDLRTGLLGGRILTAGFGSAPLSAELAGFIESLLQIHLVDGYGSTEAGPVWRDGYLVKPPVTDYKLIDVPELGYFSTDSPHPRGELAIKTQTILPGYYKRPETTAEVFDEDGFYLTGDVVAQIGPEQFAYVDRRKNVLKLSQGEFVTLAKLEAAYSSSPLVRQLFVYGSSERSYLLAVIVPTPDALKKFGVGEAAKAALGESLQKIARDEGLQSYEVPRDFIIETDPFTVENGLLSDARKSLRPKLKEHYGERLEAMYKELADGQANELRDIRRGVQQRPTLETVRRAAAAMLGASAAEIKPDAHFTDLGGDSLSALTFSNFLHDLFEVDVPVGVIVSAANTLGSVAEHIDAQLAGGRARPTFATVHGKGSTTIKASDLTLDKFIDEQTLEAAKHLPKPADPPRTVLLTGANGWLGRFLALEWLERLAPAGGKLITIVRGKDAAQAKARLDAAYESGDPKLAGHYQDLAATTLEVLAGDFSEPRLGLDEATWNRLADEVDFISHPGALVNHVLPYNQLFGPNVAGVAEIIKLAITTRIKPVTYLSTVAVAAGVEPSALDEDGDIRTVSAERSVDEGYANGYGNSKWGGEVLLREAHDRTGLPVRVFRSDMILAHQKYTGQVNATDQFTRLVQSLLATGLAPKSFYELDAQGNRQRAHYDGIPVDFTAESITTLGGDGLEGYRSYNVFNPHRDGVGLDEFVDWLIEAGHPITRIDDYDQWLSRFETSLRGLPESKRQASVLPLLHAFARPGPAVDGSPFRNTVFRTDVQKAKIGAEHDIPHLGKALVLKYADDIKQLGLL | – | – | – | – | – | accepted glutarate semialdehyde as substrate
